Reference: patent publication US20190201500A1 (ONL THERAPEUTICS, published 2019)
No end group written: not given here.

Biological target: T1, Fas receptor on 661W photoreceptor cells (UniProt P25446 22-327, limits assumed)
T1 sequence (looked up): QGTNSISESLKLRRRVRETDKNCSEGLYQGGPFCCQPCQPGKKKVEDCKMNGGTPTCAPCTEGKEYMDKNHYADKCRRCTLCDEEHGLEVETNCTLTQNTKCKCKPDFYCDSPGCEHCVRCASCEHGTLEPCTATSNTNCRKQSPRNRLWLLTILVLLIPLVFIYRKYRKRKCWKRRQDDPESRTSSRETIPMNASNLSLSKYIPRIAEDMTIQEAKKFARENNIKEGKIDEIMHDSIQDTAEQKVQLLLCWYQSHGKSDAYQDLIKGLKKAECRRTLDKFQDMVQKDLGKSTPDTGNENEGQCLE
Assay: cell-based or functional assay

human recombinant FasL (from UniProt P48023 134-281) (ligand)
caspase 8 activity in 661W cell lysates (dose of peak activity): 500 ng/mL | increase of caspase 8 activity in 661W cells: 20 to 30%

HHIYLGAVNYIY-NH2 (also: trihydrochloride salt) [Compound 1 (His-His-Ile-Tyr-Leu-Gly-Ala-Val-Asn-Tyr-Ile-Tyr-NH2), C-terminal amide of Met-12]
EC50, inhibition of FasL-induced caspase 8 activation in 661W cells: 400 nM | fold potency against Met-12 by IC50 determination: 10 fold | fold potency against Met-12 by the concentration of maximal inhibition: ~3 fold

HHIYLGAVNYIY (also: trihydrochloride salt) [Met-12 (HHIYLGAVNYIY)]
EC50, inhibition of FasL-induced caspase 8 activation in 661W cells: 4000 nM
